The assay concerns the target T1, SARS-CoV-2 Nucleocapsid Protein with GST-tag, biotinylated (Severe acute respiratory syndrome …, UniProt P0DTC9).
T1 construct: also called NP; N-GST
Briefly: ELISA; […], room temperature; […]. Particulars: one partner purified. On the technique in general: ELISA stands for enzyme-linked immunosorbent assay.

B1: Fab N1G1 (Fab, V domains shown)
VH: EVQLLESGGGLVQPGGSLRLSCAASGFTFSDYYMHVRQAPGKGLEWVSEINPSSGNTDYADSVKGRFTISRDNSKNTLYLQMNSLRAEDTAVYYCAREYEEHGYYLTDYYFDYWGQGTLVTVSS
VL: EIVLTQSPGTLSLSPGERATLSCRASQSVSSSALAWYQQKPGQAPRLLIYGASSRATGVPDRFSGSGSGTDFTLTISRLEPEDFAVYYCQQMHSTPWTFGQGTKVEIK
notes: also called positive control for anti-NP1 & 2 screening
Take B1: the binding result is “binds”.
